The target of the test is Human retinol binding protein (RBP) (human, UniProt P02753 19-201). Description: native gel or EMSA; purified TTR (0.5 uM) incubated with human RBP (0-4 uM) at 4 °C for 2 h; free and RBP-bound TTR separated by native PAGE (10%), western blot with anti-TTR and ECL; Kd by Scatchard analysis assuming a 1:2 TTR:RBP complex; low TTR/RBP molar ratio. The note with it: both partners purified.

Among the data in PMC5715260, “Increasing the length and hydrophobicity of the C‐terminal sequence of transthyretin strengthens its binding affinity to retinol binding protein” (FEBS Open Bio, 2017) are Kd values, retold here.

B1: Crocodylus porosus transthyretin (TTR), recombinant (natural protein)
chain: not shown
notes: Transthyretin, Crocodylus porosus, recombinant wild type; The discussion says all TTRs were secreted as a tetramer; also called C. porosus TTR; crocTTR; source: Pichia pastoris, secreted into the culture medium, purified (preparative native PAGE)
Broadly, the Kd is the equilibrium constant for the complex coming apart. Turning to B1, the Kd was found to be 1420 nM.
